Laboratory results reported in the supplement of paper PMC12042874.
± gives the uncertainty stated by the source.

Test: amyloid nucleation score (Sup35N fusion, yeast selection) (log enrichment); library NNK1; higher = more nucleation; inactive = no reads after selection
Outline: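 Using DiMSum, nucleation scores were taken as the log enrichment of output over input reads, centred on the mode score of non-aggregating sequences. The input and output reads came from Illumina sequencing of plasmid inserts, with sequences under 100 input reads excluded. The yeast were psi-negative, expressed Sup35N fused to peptides of 20 random codons, were induced with 100 μM copper sulfate for 24 hours, and were grown 7 days at 30°C on medium lacking adenine and uracil.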

| Substance | amyloid nucleation score |
| --- | --- |
| QNHSGPGLMIRILANAQKWF | -0.93 ± 2.4 |
| QNMWIHCWCGRGGMMTREPG | 4.73 ± 0.052 |
| QPFALNRLYHT | -0.591 ± 0.62 |
| QQVSVLILPALTKGRKVV | -0.991 ± 0.69 |
| QRCYCGSCDWLRAMFVCWGL | inactive |
| QRKYNDLFWLTSPFSQSMWM | 0.997 ± 1.1 |
| QRSCNAVTFVGCQYNFFPTE | 7.091 ± 0.05 |
| QRSLLDDRYNAICSSNTNVE | 0.184 ± 0.35 |
| QRVGCKW | -0.771 ± 0.88 |
| QRVRNRM | 0.03 ± 0.33 |
| QSVQHFGGYTKTLGASMGTF | -0.797 ± 2.4 |
| QSVWEYNGTFSLRYRDMTGY | 0.477 ± 0.65 |
| QTRRVVHSGN | 0.284 ± 0.81 |
| QTVGKVDVVDCLVLVVRLTI | -0.003 ± 0.57 |
| QVCLNDRNSSYVMRDICVY | -0.334 ± 1.2 |
| QVDHKIWKGTVYDLSMGMM | -0.35 ± 0.46 |
| QVHPPMTTGPC | 0.291 ± 0.53 |
| QVNNPSTWLMRNQIDQKLLR | -1.8 ± 1.7 |
| QVSTNLVWDL | 0.614 ± 1.2 |
| QVVFE | 0.1 ± 0.68 |
| QVYEDGRAICHLTLGRDCNL | 2.22 ± 0.47 |
| QWCVKESAFIYEYRLSGDCR | 0.877 ± 0.32 |
| QYFSWGRVATCSACG | 0.309 ± 0.62 |
| QYHLWFMCAAVDRMKNGPFG | 0.049 ± 0.36 |
| QYSGYNRRDDSFPSWGCLLT | inactive |
| RADGLHASETVGSLL | -1.13 ± 2.7 |

| Substance | amyloid nucleation score |
| --- | --- |
| RAFNRIINHRTEGNNPYYFL | inactive |
| RAHNKISDDTRAFMGSIFSE | -0.05 ± 1.4 |
| RAHVLLLFMNCRRCKQTMIR | -0.88 ± 1.1 |
| RAIMRKIYYHVMMIWI | 0.153 ± 0.41 |
| RAMCKNQCSYVMR | 0.003 ± 0.37 |
| RAMDYFALEIQLVPRRLVQL | 0.18 ± 0.41 |
| RAMTVLLGGNFQMIIKTFEL | 3.09 ± 0.074 |
| RARRGWSTGDEQHMSGKGIK | 0.097 ± 0.49 |
| RASHGAYDNFRGKKFMMRVM | -1.01 ± 0.54 |
| RATCVFCYTICFSWPSVWTF | 3.5 ± 0.062 |
| RAWQHNFGKIMRSPRVFVRW | -1.4 ± 0.94 |
| RCEGYFSVDVRGYSMLEIPG | -0.365 ± 1.3 |
| RCISIRAYVTLFRNEYLCSN | 4.86 ± 0.1 |
| RCLGVCYTLDVFRSRMLDKL | -0.097 ± 0.44 |
| RCLQKPMRLRSQKIKQCVLR | -0.341 ± 1.4 |
| RCMGGGFRRRVNMYETPGIR | -0.387 ± 0.79 |
| RCMNWVKCDRNPCVMLSIGT | inactive |
| RCSFIS | -0.682 ± 0.75 |
| RCSFSGNYIIILLAVRTYFE | 1.1 ± 0.47 |
| RCSNLGFKFWR | -0.332 ± 0.39 |
| RCVFNRIKDFSVRDRWSFSG | 1.03 ± 0.73 |
| RCVIDDKLWGISLRGPMMGV | -1.48 ± 1.9 |
| RCVMRAHFSTWLHKVSTSVW | 0.677 ± 0.54 |
| RCVSAFLLLFSMHRHG | 1.28 ± 0.36 |
| RCYHWVDLVCVRVGTRACFL | 0.877 ± 1.1 |
| RCYVDKSYNGDWASSAGQKH | 0.065 ± 0.44 |

| Substance | amyloid nucleation score |
| --- | --- |
| RDCPTNIVAGTLLCLMAEWT | -0.549 ± 1 |
| RDGIMYG | 0.505 ± 0.39 |
| RDHTIRPLWIAGSHMQFLNR | 0.477 ± 0.34 |
| RDIYRVYNV | -1.05 ± 0.72 |
| RDLPFVTSSLCCSNTSGCMF | 0.429 ± 0.53 |
| RDRDVEFTNDL | 0.614 ± 0.75 |
| RDSAL | 0.274 ± 0.4 |
| RDTHRDNRNLPSHLSSVYRK | -1.35 ± 2.4 |
| RDTNVWFHT | -0.267 ± 1.1 |
| RDWLLTLVLTLSQGPTTCAT | 0.247 ± 1.4 |
| RDYYIVNSGLKLEYHLLI | 3.77 ± 0.051 |
| REVWRLFILSRVVGYKVIL | 0.142 ± 0.22 |
| REYNSYLLGVGHNLQLRSYI | inactive |
| RFHSFYNPQSSIDITLVGGF | 4.65 ± 0.089 |
| RFHWACKVYLSNYMV | 0.69 ± 0.25 |
| RFIIFNHDLGLRD | -0.384 ± 0.51 |
| RFKCDVTTVDW | 0.108 ± 0.24 |
| RFRFMLVFSNLSLL | -0.022 ± 0.53 |
| RFRFNWLNSQNLQRFVGTFK | 0.433 ± 0.3 |
| RFSRVFIRLMGDVALSSGLL | 0.532 ± 0.53 |
| RFTNIFAKNRLCRLDMRRNT | -0.211 ± 0.56 |
| RFVCQPNRWFHNKRGVGRET | 0.653 ± 0.64 |
| RGAQLIRRSFKTVAGLGFIM | -0.767 ± 1.4 |
| RGCVGRSFSDEES | -1.22 ± 1.5 |
| RGDLF | 3.04 ± 0.07 |
| RGFMWLACITCFYAVCYNVS | 0.005 ± 0.45 |

| Substance | amyloid nucleation score |
| --- | --- |
| RGFQTKSKGLARRSMYKCWE | -0.275 ± 0.31 |
| RGFWLERCSWTF | -0.003 ± 0.37 |
| RGGMF | -0.252 ± 0.67 |
| RGGNIVKHRLFGPDGGAYWK | -0.591 ± 0.79 |
| RGGRRDWLCIFRGRLGVA | -1.08 ± 0.78 |
| RGISYLV | -0.212 ± 0.68 |
| RGLVFEGKLAFTVATVVFFW | -1.19 ± 1.4 |
| RGRRDAGGYRSKSFLGAWGV | 0.837 ± 0.21 |
| RGTGLICCTNVCGRTWKGHN | 7.406 ± 0.047 |
| RHALIYMVQVAQAGWGGLEV | -0.767 ± 0.78 |
| RHMRFPWLKAHVIFIMQWQR | 1.16 ± 0.54 |
| RHRVQTTPSSMSFV | -0.388 ± 0.96 |
| RHSLIFDRTGRGYGARVPVE | inactive |
| RHSSYIGMCRT | 1.66 ± 0.56 |
| RHTETSLASSARKPALNPT | 0.197 ± 0.41 |
| RHVYW | 0.551 ± 0.39 |
| RIAFFS | 1.25 ± 0.57 |
| RIAVWSSGSYCMYYTCWCNH | -0.191 ± 0.24 |
| RIDARILLITCL | -1.51 ± 2.4 |
| RIDCYW | -0.858 ± 1.1 |
| RIDQNICGIVNMVFR | 6.311 ± 0.047 |
| RIGFPSQSGLLVVAVLTQSA | -0.379 ± 0.43 |
| RILKMYTYVLTMADHVLNKS | 0.21 ± 0.2 |
| RIMYSRLDYWLAYPVISERG | -0.057 ± 1.4 |
| RINQVTGVVQLVFRCRNSRL | 7.643 ± 0.047 |
| RINSGHIK | 0.247 ± 0.33 |

| Substance | amyloid nucleation score |
| --- | --- |
| RIPRFLNSLSEYYYLDFHYG | 1.15 ± 0.23 |
| RISLRYGQRC | 0.356 ± 0.28 |
| RISSVT | 0.17 ± 0.86 |
| RITAVRGVCLFSADSV | -0.175 ± 0.26 |
| RIVEGWDTLSFLFRKGCEFF | 1.2 ± 0.56 |
| RKAIFTSFSQ | inactive |
| RKCEDGFWGKRDSATKGP | 0.034 ± 0.29 |
| RKCLESTTRSFLAVRS | 3.3 ± 0.097 |
| RKDVLEGADSMTMVRRSSLF | -0.286 ± 0.35 |
| RKFRNKAIISIIDVYRPAAI | 1.01 ± 0.62 |
| RKIVYVYEDVVRLNTCRISS | 0.034 ± 0.93 |
| RKRPTGTHAVDVSRGFT | 1.27 ± 0.71 |
| RKTNLGWHSICRA | -0.435 ± 0.28 |
| RLAQYHMYIKFETGYN | 1.23 ± 0.36 |
| RLAVKDNVCKLDMMSGCCLS | 5.45 ± 0.059 |
| RLCPENLRTNFKCVLNFMVT | 4.81 ± 0.12 |
| RLCPSCLVKWMTLWFVWIVR | 0.769 ± 0.41 |
| RLCVVRDRFIGPIRRAFLHP | inactive |
| RLDSPDVVSAFCEAALASAS | 0.136 ± 0.76 |
| RLEADYLTVIESVGHSATGS | inactive |
| RLFLVEFIWNMR | 0.958 ± 0.71 |
| RLFYTRSDSGGVRLVVLAVG | 0.003 ± 1.2 |
| RLGHDRIFSIRNSQS | -0.287 ± 0.58 |
